Tests used:
[1] = biological target: PsrA-His6 (His-tagged PsrA, LysR family transcriptional regulator of Serratia marcescens JNB5-1) (Serratia marcescens JNB5-1); test: SEC
PsrA = test: isothermal titration calorimetry, one-site model; assay type: binding, Serratia; details: 50 mM PBS pH 7.4, 25°C; 30 μM PsrA titrated with 0.3 mM ligand; effector, no DNA

Compound | stoichiometry N [1] | Kd (PsrA)
PsrA-His6 (His-tagged PsrA, LysR family transcriptional regulator of Serratia marcescens JNB5-1) (natural protein) | 4 | –
O=C(O)[C@@H]1CCCN1 [L-proline] | – | 13.6 µM

Reference: PMC8754645 (Nucleic Acids Research, 2021)
